The DeepSol protein solubility set

Test: soluble on expression in E. coli; label from the status in PepcDB or PDB records

Row | Sequence | soluble on expression in E. coli
1 | MASTPCAACKLLRRKCTQECVFAPYFPPTNPQKFIFVHRVFGASNVTKILNDLPPDQREDTVNSLFYEAEARIRDPIYGCVGLISFLQQYLKKIQQDLLTAKEELVGYLGPDAVIPPPYLPPIGNNPPPNFMMSMEGMPPGVIPQGEPLMIREPNMSQQHHHQQPQDEQLQFIASDAQRMAAMMLERGDQQGMFNGYGIDNNGSVTATGFNQMDVNDQGAGGSLSGPSLALGSFGDAYQMGQETEHGHINHDQLQTQLMLQPPLQEGQEQTEEGQFLMQPMGQENLHDEEEEEELEPPVKWRMSENKEASF | not soluble
2 | SNAASATETNTAPSADTQAPKPVNTVTSDVDCSVSAAWGLYKFNQKSNFSAEFEMPESVKAGTGFDALIKIKDISVSNDNLSGYKNAKLTKSSIRINVGKNVKLDGNQPGLSLSNGVLSINDHLKASLEGNSLRISAAPITVRLQALTEGTLTFIPEKTILTNTASVDGYTANTTCTTNADKPFATVKVDPADGLTITAPESASIKQDVQITATVPEKLNEKMDGKVQFFVNHIAAGDPVPVTEDNKASTSIIFDTSGSKTITARFIDAEGYNPAPDGETIIPVVTELDTKKPEDTDSYTGLINGSATSLLKPAKVMPGEKVSVSASLLPNKAPIRVYEIGINAPEDVKYIDGTGKTNYSSKLATTGSVFSSPGSGYYDPEWKNESKKPNESYRGFHSDTSYSVVDTSPQTVSAEFEIPKTLAPGIYMFQMGVYKYSNSLKDLVSIPETAFEIAGPDLPALPERKIKPQPEETPEVSDGSSTAKLVKSP | soluble
3 | MGSDKIHHHHHHMGQIRVSGLGKAYKQYPNRWSRLFEWLVPFSPPRHHLHWILREVEFTIEPGEAVGIVGVNGAGKSTLLKMIAGTTQPTCGEIRVAGRVAALLELGMGFHPDFTGRQNVFMAGQLLGMQVEEIQALMPDIEAFAEIGEAIEQPVRTYSSGMQMRLAFSVATARRPDILIVDEALSVGDAYFQHKSFERIRSFRKAGTTLLIVSHDRSAIQSICDSAILLEQGRMAMRGRPEEVMDYYNALLAEREGQTVRQEMLADGQVRTISGTGEAAILDVRMVDQRQRALEVVEVGQAVTLEVEVEVRQDIERLILGFMIKDRLGQPMYGINTHRLDKALTDLKAGERITYRFAFDMRLGKGHYSVALSLSRLDSHLDRNFEWRDYGLVFHVINNRQEDFVGCSWLGAETHISRSGEAALDPTSAESTP | not soluble
4 | MKVGIIGASGYTGSELLRILANHPEAEVIAASSRRYEGQKIWKVHRFLKGFYDLEFCSPELSNFGDCDLVFTAVPHGEAMKYVPQLLDSGIKVVDISADYRLDKETYERVYGKKHEGYVEAVYGLTELHREEIKKANLVANPGCYPTGTILAASPLAKLELIERVVFDCKSGITGAGESPSAFTHYPNLHESIVPYKITEHRHYYEMVQELGRFQSDIKISFTPQVYPGSRGILTNAHVFLRGELTREELYRIYEEFYEDSFFVRIQESVSLSQVRGSNFCDISIHPGEDRVVVVSAIDNLVKGASGQAVQNMNLMMGFDETLGLRTPPLFP | not soluble
5 | MKLIKNAEFGGERPLFESHDLRLENVIIRTGESAIKECSNIETVDCRFEGNYPFWHVHGFKIDRCYFDVGGRSALWYSDHLKMTDTIIDAPKMFREMDEIDIENVTMNDADEVFWRCNGIRIKNLKLHGGTYPFMFSNNIYVDGLESNSKYVFQYVKNVEIHHAKITTKDAFWEVENVTIYDSELNGEYLGWHSKNLRLVNCHITGEQPLCYAHDLILENCTFGPDCDRTFEYSTLQADIHGAITNIKNPMSGCIVADEFGSITIDENIKAPADCEIRLRDERTCFTD | soluble
6 | MGSDKIHHHHHHMLDQIKAHLLDSINDIVSSANQFVLHPEKDFSRQSQLTMKTMIQAILTMGGNTLAKELLDLDLPVSQSAFVQRRYQIKHQAFKTLFRDITSKIPISDNLPILAVDGSDVILPRNRFDKTTSFQTGPHHTPYNLIHINALYTLEQEIYHDLRIQDNREVDERAAFIDMMKTSSFKQALVIMDRGYESYNVMAHCQERNWSYIIRIRDGNHSMKSGFNLPDTPCFDEAFDLNICRKQTNDMKELYRDFPNQYHFLPHNASFDFLLNSSRKSDPLQFYELHFRMVRLEIKPGFFETLVTNTDYSPEKLKELYAYRWGIETSFRDLKYSIGLTHFHAKKKEGILQEIYARFINFNVCKWLTSHVAIKTSKLKQTYKICFSDAVYACRKFLRNKLTSFQLETYIAKHLSIIRPNRTFQRKIKSKAPVSFTYRVT | not soluble
7 | MLAAKNILNRSSLSSSFRIATRLQSTKVQGSVIGIDLGTTNSAVAIMEGKVPKIIENAEGSRTTPSVVAFTKEGERLVGIPAKRQAVVNPENTLFATKRLIGRRFEDAEVQRDIKQVPYKIVKHSNGDAWVEARGQTYSPAQIGGFVLNKMKETAEAYLGKPVKNAVVTVPAYFNDSQRQATKDAGQIVGLNVLRVVNEPTAAALAYGLEKSDSKVVAVFDLGGGTFDISILDIDNGVFEVKSTNGDTHLGGEDFDIYLLREIVSRFKTETGIDLENDRMAIQRIREAAEKAKIELSSTVSTEINLPFITADASGPKHINMKFSRAQFETLTAPLVKRTVDPVKKALKDAGLSTSDISEVLLVGGMSRMPKVVETVKSLFGKDPSKAVNPDEAVAIGAAVQGAVLSGEVTDVLLLDVTPLSLGIETLGGVFTRLIPRNTTIPTKKSQIFSTAAAGQTSVEIRVFQGERELVRDNKLIGNFTLAGIPPAPKGVPQIEVTFDIDADGIINVSARDKATNKDSSITVAGSSGLSENEIEQMVNDAEKFKSQDEARKQAIETANKADQLANDTENSLKEFEGKVDKAEAQKVRDQITSLKELVARVQGGEEVNAEELKTKTEELQTSSMKLFEQLYKNDSNNNNNNNGNNAESGETKQ | not soluble
8 | MWKAVMNAWNGTESQSKNVSNIQSYSFEDMKRIVGKHDPNVVLVDVREPSEYSIVHIPASINVPYRSHPDAFALDPLEFEKQIGIPKPDSAKELIFYCASGKRGGEAQKVASSHGYSNTSLYPGSMNDWVSHGGDKLDL | soluble
9 | MNYNNKILVSESGLSQKHLIHGDEELFQHELKTIFARNWLFLTHDSLIPAPGDYVTAKMGIDEVIVSRQNDGSIRAFLNVCRHRGKTLVSVEAGNAKGFVCSYHGWGFGSNGELQSVPFEKDLYGESLNKKCLGLKEVARVESFHGFIYGCFDQEAPPLMDYLGDAAWYLEPMFKHSGGLELVGPPGKVVIKANWKAPAENFVGDAYHVGWTHASSLRSGESIFSSLAGNAALPPEGAGLQMTSKYGSGMGVLWDGYSGVHSADLVPELMAFGGAKQERLNKEIGDVRARIYRSHLNCTVFPNNSMLTCSGVFKVWNPIDANTTEVWTYAIVEKDMPEDLKRRLADSVQRTVGPAGFWESDDNDNMETASQNGKKYQSRDSDLLSNLGFGEDVYGDAVYPGVVGKSAIGETSYRGFYRAYQAHVSSSNWAEFEHASSTWHTELTKTTDR | soluble
10 | MIRRAPTTLQLSHDDVTSLIDDLNEQKLKQQLNIEKTKYFQGKNGGSLHSNTDFQDTSQNIEDNNNDNDNDIDEDDDMSSYNDKAASVAHTRVLNSLHLSTDSNTAHETSNANDNHNPFYIREE | not soluble
11 | MAHHHHHHMPLVKAETDASFVAEVAESVGGACARMNDHISVMIEEYLRRRTQQVRDDVKQELDAVRVHLERKIADAEAAKAVEEERYHKKKVQVLQAAVELQKMHANLHLQRLFHTWRRCADVRQERRRLAEEAHIHIGRLSLFHAYMQWRLFAAALRQKRLEAKEAHKRDCREQELLGQIEGYQRQLEGERAKDASLNEKLKEAFVRGMCALNREAVHVLHGSEENQDADVEAIAEILSRESHSRHRSVTPGHMDSSTLSNVHGHGVCPVHHIDAKGSFYHPCFSPGYCEYDRHSGSRAPVSSAVPPSASGPFVVSADPKSARSIDSSPPVPFRHLSKSSTTRWRM | not soluble
12 | MGSDKIHHHHHHAQQPVELPLWPDGAPNSNGLTGGEKEVSPHRLSNVTAPTITVYRAPQPNGMAVIMCPGGGYSRLAMDHEGHDMASWFCGQGITYVVLKYRMPNGHCEVPLSDAERAIRIVREHAGEWNIHPRKIGIMGASAGGHLASTLATHYSAASRPDFQILLYPVVTMTQSTHGGSRKELLGGNPTAEQEVLFSNELQVTSDTPQAFIVLSSDDGAVPPSNGVNYYLALQKNNVPASLHVYPTGGHGWGFRDNFKYKQQWTQELEKWLREGVVFPKETAPMLRIGKTYLGTKYVANTLDQGTEEKLVILPQTVDCLTFVEYTLAQAMGSSFADNLQKIRYRDGVIDGYTSRLHYTSDWIENGVRQGFLEDVTAQNSTQTTKLSLSYMSTHPQKYRQLADSPENVKRMAEHEKALSGKKVHWLPKGKLPDAGLPWIMDGDIIAITTNLPGLDVAHVGMAEYINGKLHLLHASSTLGKVVVSEEPLSQMLRNNKSWSGIRVVRMSHP | not soluble
13 | MNLRIPWKEVYYLGYNMGNYIKISEPELLFVLRNKPQIKDRLKLDEKTIIKEGVKKYKNFWEIYYTVKDLILRGYRVRFDGFFIELYEKGIIPGTIEQDYLVYPVSGEIRMTWGELLDIYNKAIARKSKFMLAIVDSEGDVTYYEFRKLRSNK | soluble
14 | MTLTRKTLFLLTAAFGTHSLQTASADAVVKAEKLHASANRSYKVAGKRYTPKNQVAEFTQTGNASWYGGRFHGRKTSGGERYDMNAFTAAHKTLPIPSYVRVTNTKNGKSVIVRVNDRGPFHGNRIIDVSKAAAQKLGFVNQGTAHVKIEQIVPGQSAPVAENKDIFIDLKSFGTEHEAQAYLNQAAQNFAVSSSGTNLSVEKRRYEYVVKMGPFTSQERAAEAEAQARGMVRAVLTAG | not soluble
15 | MAGPVFPWRDGNQFELLIDGPAFFPRMLLAIMRAEFQVDLELYLVEAGACAEAVVDALEQAARRGVRVRCLFDDYGSLAFNSALRQRLLDAGVYLRWYNRLRWKRGLRNLYRDHRKLLLVDERWAVVGGTGVTDEFWTPGEATSEWHEVMVQMQGPVVSDWQLLFDRQWQANNRRTAWRPAEGFGLPRLPKVPAQGQGMGRVAYADARQHQDILHALVRALNSGQKRVWLATPYFLPTWSVRRSLRRAASKGLDVRLLLTGPRTDHPSVRYAGHRYYPRLLRAGVRIFEYQPCFLHLKMAVVDDWVSVGSCNFDHWNLRFNLEANIEALDPPLTAAVVASFERDFAQSEEVDLAHWHARPWWRRVKQRIWGWLDRLVVNFLDRRD | not soluble
16 | KANFQWETGFTFSVNKNTIKKLYGEYETIVDALGNTIVKERDDVTNGWFIGHPVSAIWDYKVTGIWQKDEVKEAAKYSQRPGDPKVQNIYTDDDKVNADGSVTPVYNNKDKQFMGETTPPIHWSLRNSFTIFKDWVFSFNMYSYMGHKSLDTNYLNNDNNYSQITNCRNVYTKEYWTVDNPSNTYARLSAQGPTGISAPARVIDRSFIRLENISLAYNIPMKFLEKYKIQNAKIFTTVRNVATWSKEWEYGDPETGGLAPRTYSLGINLTF | not soluble
17 | MTIYEQHFIFSDRIVPIRVRENKYARRLILRIDARGREICVTTPPAINLYSIQGFIAKHQSWIEARLARVQIAHANSYLKEGTKIPLLGIPHTIQRKEGRGITEIVAGDVRQEPKIVVYGQLEYLPRRIADVLKKQAALIITPLVKCYARKVERKVKSICYKDTKSRWGSCSIHGNLSFSWRLVMAPQEVIEYVVAHEVAHLIEMNHGPKFWALCEKLCPKSEAYRTWLKENGHMLQAVNFHSYRLEI | not soluble
18 | MLQNQYVREMRKYGVRGLRYDAAKHSKHEQIERSITPPLKNYNERLHNTNLFNPKYHEKAVMNYMEYLVTCQLDEEQMSSLLYERDDLSAIDFSLLMKTIKAFSFGGDLQTLASKPSSTISSIPSKRRILININHDFPNNGNLFNDFLFNHQQDEQLAMAYMAALPFSRPLVYWDGQVLKSTTEIKNYDGSTRVGGEAWLNKGCSTYQQLYNEFHALYIDKAGIWSAFEGVFATKNVLAFSRGDSVNINHSPHDGLVIINKGNEEVEGAWPNKLQPGKYKNMGSNSVNIIINNTRKIIPPGKAFMLRGGTLNINIPGRSALLLGKTGEPLNYLYL | not soluble
